From patent publication US20030049732A1 (Human Genome Sciences, published 2003)

T1: Nod1 (human, UniProt Q9Y239 1-953)
T1 construct: also called wild-type Nod1; WT Nod1
T1 sequence: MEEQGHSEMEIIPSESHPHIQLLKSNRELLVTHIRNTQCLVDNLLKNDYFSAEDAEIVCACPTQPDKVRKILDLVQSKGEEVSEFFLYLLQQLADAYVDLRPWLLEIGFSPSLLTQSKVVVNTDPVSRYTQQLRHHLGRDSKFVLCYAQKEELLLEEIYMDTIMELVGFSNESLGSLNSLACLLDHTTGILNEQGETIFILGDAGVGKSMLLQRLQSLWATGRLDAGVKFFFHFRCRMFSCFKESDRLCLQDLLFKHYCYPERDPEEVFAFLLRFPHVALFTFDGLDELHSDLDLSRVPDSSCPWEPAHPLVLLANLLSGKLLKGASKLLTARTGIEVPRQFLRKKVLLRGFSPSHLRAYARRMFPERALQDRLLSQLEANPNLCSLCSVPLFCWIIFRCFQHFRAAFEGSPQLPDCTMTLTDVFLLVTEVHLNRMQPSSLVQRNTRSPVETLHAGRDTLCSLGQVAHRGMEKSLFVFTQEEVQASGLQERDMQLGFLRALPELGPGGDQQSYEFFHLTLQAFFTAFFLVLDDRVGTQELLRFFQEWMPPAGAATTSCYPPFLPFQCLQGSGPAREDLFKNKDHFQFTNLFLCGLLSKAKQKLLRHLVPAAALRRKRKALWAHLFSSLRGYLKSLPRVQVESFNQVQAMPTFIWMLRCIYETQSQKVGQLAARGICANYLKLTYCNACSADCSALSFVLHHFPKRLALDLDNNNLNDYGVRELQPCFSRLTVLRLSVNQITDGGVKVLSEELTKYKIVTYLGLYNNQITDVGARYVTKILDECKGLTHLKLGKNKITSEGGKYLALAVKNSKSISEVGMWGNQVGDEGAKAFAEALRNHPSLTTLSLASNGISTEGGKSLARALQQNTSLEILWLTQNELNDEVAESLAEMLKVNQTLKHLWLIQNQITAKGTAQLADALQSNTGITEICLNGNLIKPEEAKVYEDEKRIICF


Target: T1, Nod1
Experiment: co-immunoprecipitation, tagged proteins transiently expressed in 293T cells
Excerpt: The CARD and its structurally related death effector domain (DED) are peptide motifs that mediate interactions between apoptosis-regulatory proteins (Science 281:1301 (1998); Hofmann et al., Trends Biochem. Sci. 22:155 (1998)).

Binder	binding result
Ced-4 (other, UniProt P30429 1-549, looked up) MLCEIECRALSTAHTRLIHDFEPRDALTYLEGKNIFTEDHSELISKMSTRLERIANFLRIYRRQASELGPLIDFFNYNNQSHLADFLEDYIDFAINEPDLLRPVVIAPQFSRQMLDRKLLLGNVPKQMTCYIREYHVDRVIKKLDEMCDLDSFFLFLHGRAGSGKSVIASQALSKSDQLIGINYDSIVWLKDSGTAPKSTFDLFTDILLMLKSEDDLLNFPSVEHVTSVVLKRMICNALIDRPNTLFVFDDVVQEETIRWAQELRLRCLVTTRDVEISNAASQTCEFIEVTSLEIDECYDFLEAYGMPMPVGEKEEDVLNKTIELSSGNPATLMMFFKSCEPKTFEKMAQLNNKLESRGLVGVECITPYSYKSLAMALQRCVEVLSDEDRSALAFAVVMPPGVDIPVKLWSCVIPVDICSNEEEQLDDEVADRLKRLSKRGALLSGKRMPVLTFKIDHIIHMFLKHVVDAQTIANGISILEQRLLEIGNNNVSVPERHIPSHFQKFRRSSASEMYPKTTEETVIRPEDFPKFMQLHQKFYDSLKNFACC	no binding
DEDD (other, UniProt O75618 1-318, looked up) MAGLKRRASQVWPEEHGEQEHGLYSLHRMFDIVGTHLTHRDVRVLSFLFVDVIDDHERGLIRNGRDFLLALERQGRCDESNFRQVLQLLRIITRHDLLPYVTLKRRRAVCPDLVDKYLEETSIRYVTPRALSDPEPRPPQPSKTVPPHYPVVCCPTSGPQMCSKRPARGRATLGSQRKRRKSVTPDPKEKQTCDIRLRVRAEYCQHETALQGNVFSNKQDPLERQFERFNQANTILKSRDLGSIICDIKFSELTYLDAFWRDYINGSLLEALKGVFITDSLKQAVGHEAIKLLVNVDEEDYELGRQKLLRNLMLQALP	no binding

Second part, the binder after the results:

binding result	Binder
no binding	A20 (other, UniProt P21580 1-790, looked up) MAEQVLPQALYLSNMRKAVKIRERTPEDIFKPTNGIIHHFKTMHRYTLEMFRTCQFCPQFREIIHKALIDRNIQATLESQKKLNWCREVRKLVALKTNGDGNCLMHATSQYMWGVQDTDLVLRKALFSTLKETDTRNFKFRWQLESLKSQEFVETGLCYDTRNWNDEWDNLIKMASTDTPMARSGLQYNSLEEIHIFVLCNILRRPIIVISDKMLRSLESGSNFAPLKVGGIYLPLHWPAQECYRYPIVLGYDSHHFVPLVTLKDSGPEIRAVPLVNRDRGRFEDLKVHFLTDPENEMKEKLLKEYLMVIEIPVQGWDHGTTHLINAAKLDEANLPKEINLVDDYFELVQHEYKKWQENSEQGRREGHAQNPMEPSVPQLSLMDVKCETPNCPFFMSVNTQPLCHECSERRQKNQNKLPKLNSKPGPEGLPGMALGASRGEAYEPLAWNPEESTGGPHSAPPTAPSPFLFSETTAMKCRSPGCPFTLNVQHNGFCERCHNARQLHASHAPDHTRHLDPGKCQACLQDVTRTFNGICSTCFKRTTAEASSSLSTSLPPSCHQRSKSDPSRLVRSPSPHSCHRAGNDAPAGCLSQAARTPGDRTGTSKCRKAGCVYFGTPENKGFCTLCFIEYRENKHFAAASGKVSPTASRFQNTIPCLGRECGTLGSTMFEGYCQKCFIEAQNQRFHEAKRTEEQLRSSQRRDVPRTTQSTSRPKCARASCKNILACRSEELCMECQHPNQRMGPGAHRGEPAPEDPPKQRCRAPACDHFGNAKCNGYCNECFQFKQMYG
no binding	Caspase-3 (enzyme, UniProt P42574 1-277, looked up) MENTENSVDSKSIKNLEPKIIHGSESMDSGISLDNSYKMDYPEMGLCIIINNKNFHKSTGMTSRSGTDVDAANLRETFRNLKYEVRNKNDLTREEIVELMRDVSKEDHSKRSSFVCVLLSHGEEGIIFGTNGPVDLKKITNFFRGDRCRSLTGKPKLFIIQACRGTELDCGIETDSGVDDDMACHKIPVEADFLYAYSTAPGYYSWRNSKDGSWFIQSLCAMLKQYADKLEFMHILTRVNRKVATEFESFSFDATFHAKKQIPCIVSMLTKELYFYH
no binding	Caspase-7 (enzyme, UniProt P55210 1-303, looked up) MADDQGCIEEQGVEDSANEDSVDAKPDRSSFVPSLFSKKKKNVTMRSIKTTRDRVPTYQYNMNFEKLGKCIIINNKNFDKVTGMGVRNGTDKDAEALFKCFRSLGFDVIVYNDCSCAKMQDLLKKASEEDHTNAACFACILLSHGEENVIYGKDGVTPIKDLTAHFRGDRCKTLLEKPKLFFIQACRGTELDDGIQADSGPINDTDANPRYKIPVEADFLFAYSTVPGYYSWRSPGRGSWFVQALCSILEEHGKDLEIMQILTRVNDRVARHFESQSDDPHFHEKKQIPCVVSMLTKELYFSQ
